This is an account of results in the nanobody polyreactivity screen of Harvey et al. (2022).

A short description of the series: yeast display, Sf9 membrane polyspecificity reagent, FACS + sequencing; frameworks hold sequencing errors. In outline: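 Galactose induction of a Saccharomyces cerevisiae BJ5465 synthetic nanobody display library ran 36–48 hours. The cells were then stained for 1 hour at 4 °C with 10% biotinylated, detergent-solubilized Sf9 membrane reagent, pulled down on streptavidin microbeads and FACS-sorted into low and high (top ~1%) gates on expression and reagent-binding fluorescence. Labels for polyreactivity follow the gate of origin.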
For “QVQLLESGGGLVLAGGRIRLSCAASGRTYRYTMGWNRQSPGKERELVAAISRSGGSTYYADSVKGRFTISRDNAKNSFYLQMNSLKPEDTAVYYCAKVIYRYNETYDYWGQGTQVTVSS”, the “polyreactivity (PSR sort gate)” value is “high polyreactivity”.

For “QVQLVESGGGLVQAGGSLRLSCAASGSTFRFYAMGWYRQAPGKERELVAAISKSGGITYYADSVKGRFTISRAHAKNTVYLQMNSLKPEDTSVSYCATVGLLSNFYSRFNYWGQGTPVTVSS”, the “polyreactivity (PSR sort gate)” value is “high polyreactivity”.

With “QVQLVESGGGLVQSGGSLRLSCAASGRIFDENAMGWYRQAPGKERELVAAITGGDSTNYADSVKGRFTISRDNAKNTVYLQMNSLKPEDTAVYYCAVDVIYYWAEDYDYWGQGTQVTVSS”, the “polyreactivity (PSR sort gate)” value is “low polyreactivity”.

With “QVQLVESGGGLVQAGGSLRLSCAASGRIFPYNAMGWYRQAPGKERELVAAIDWRDNTYYADSVKGRFSISRDNAKNTVYLQMNSLKPEDTAVYYCNVDYTDYFLNKYDYWGQGTQVTVSS”, the “polyreactivity (PSR sort gate)” value is “low polyreactivity”.

As to “QVQLVESGGGLVQAGGSLRLSCAASGITFEGYAMGWFRPAPGKERELVAAIRSSGTSTYYADSVKGRFTISRDNAKTTVYLQMNSQKPVDTAVYYCNRARSSSRYDYWGQGTQVTVSS”, the “polyreactivity (PSR sort gate)” value is reported as “low polyreactivity”.

Turning to “QVQLVESAGGLVQAGGSLRLSCAASGSTFPKYAMGWSRQAPGKERELVASISVTTGSTYYADSVKGRFTISRDNAKNTVYLQMNSLKPEDTAVYYCAKRTYSRKFRGAYNYGGQGTQVTVSS”, the “polyreactivity (PSR sort gate)” value is “high polyreactivity”.

In the case of “QVQLVESGGGLVQAGGSLRLSCAASGRTFYSNAMGWYRQAPGKERELVAAITFGGGSTYYADSVKGRFTISRDNAKNTVYVQMNSLKPEDTAVYYCAAEGYKYRFYYWGQGTQVTVSS”, the “polyreactivity (PSR sort gate)” value is reported as “low polyreactivity”.

Turning to “QVQLVESGGGLVQAGGSLRLSCAASGRIFGAYTMGWYRQAPGKERELVAVISSRGTDTYYADSVKGRFTISRDNAKNTVYLQMNSLKPEDTAVYYCAKRWWYTTSPRRSGDYWGQGTQVTVSS”, the “polyreactivity (PSR sort gate)” value is reported as “high polyreactivity”.

As to “QVQLVESAGGLVQAGGSLRLSCAASGRIFWDYAMGWYRQAPGKERELVATITQNDGSTYYADSVKGRFTISRDNAKNTVYLQMNSLKPEDTAVYYCAAYLLGWFTIKYDYGGQGTQVTVSS”, the “polyreactivity (PSR sort gate)” value is on record as “low polyreactivity”.

Turning to “QVHLVESGGGVVQAGGSLRLSCAASGFTFVPYAMGWYRQAPGKETETNADSVKGRFTSSRDNAKNTVYLQMNSLKPEDTAVYYCAAGGYGPYDYWGQGTQVTVSS”, the “polyreactivity (PSR sort gate)” value was “low polyreactivity”.

“QVQLVESGGGLVKAVGSLRLSCAASGINLIRYVMGLYRQAPGKERELVAAISGSGGRTYYADSVKGRFTISRDNAKTTVDLQMNSLKPEDTAVYYCAAVSFRTTHGEYDYWGQGTQVTVSS”: the “polyreactivity (PSR sort gate)” value is “low polyreactivity”.

Consider “QVQLVESGGGLVQAGGSLRLSCAASGSIFIRNAMGWYRQAPGKERELVASISRSGAYTRYADSVKGRFTISRDNAKNTVYLQMNSLKPEDTAVYYCAVRLVNYLSYWRTYNYWGQGTQVTVSS”, for which the “polyreactivity (PSR sort gate)” value is on record as “high polyreactivity”.

Turning to “QVQLVESGGGLVQAGGSLRLSCAASGITFWEYAMGWYRQAPWKERELVAAISRSGGSTYYADSVKGRFTISRDNAKNTVYLQMNSLKPEDTAVYYCADETRRPIYDYWGQGTQVTVSS”, the “polyreactivity (PSR sort gate)” value is given as “high polyreactivity”.

With “QVQLVESGGGLVQAGGSLRLSCAASGRIFYPYAMGWYRQAPGQERELVAVINGSGGSTYYADSVKGRFTISRDNAKNTVYLQMNSLKPEDTAVYYCAAVGAYSRNEYDYWGQGTQVTVSS”, the “polyreactivity (PSR sort gate)” value is “high polyreactivity”.

“QVQLVESGGVLVQEGGSLRLSCADSGRIFYSNAMGWYRQAPGKERELVAAISYSGGRTYYADSVKGRFTISRDNAKNTVYLQMNSLIPEDTAVYYCAARYAWGYVDPGDYWGQGTQVTVSS”: the “polyreactivity (PSR sort gate)” value is recorded as “high polyreactivity”.

Regarding “QVQLEESGGGLVQAGGSLRLSCAASGRTFRINAMGLYRQAPGKERELVAAIRSRAGSTYYADSVKGRFTISRDNAKNTVYLQMNSLKPEDTAVYYCAAKLPFDVDYWGQGTQVTVSS”, the “polyreactivity (PSR sort gate)” value is “high polyreactivity”.

Regarding “QDQLVESGGGLVQAGGSLRLSCAASGSIFPYNAMGWYRQAPGKERELVATISSGGSTNYADSVKGRFTISRDNAKNTVYLQMNSLKPEDTAVYYCAAVVIVFYYAPNYWGDIEYGYWGQGTQVTVSS”, the “polyreactivity (PSR sort gate)” value was “low polyreactivity”.

Consider “QVQLVESGGGLVQAGGSLRLSCAASGRIFYYYAMGWYRQAPGKERELVATISRSGGSTYYADSVKGRFTISRDNAKNTVYLQMNSLKPEDTAVYYCAAGYGPSGYTRYYWGQGTQVTVSS”, for which the “polyreactivity (PSR sort gate)” value is “high polyreactivity”.

Consider “QFQLVESGGGLVQAGGSLRLSCAASGSIFYGYAMGWYRQAPGKERELVAAITSSNGSTYYADSVKGRFTISRDNEKNTVYLQMNSLKPEDTAVYYCAADVHGSYYIKPNVWYDYWGQGTQVTVSS”, for which the “polyreactivity (PSR sort gate)” value is “low polyreactivity”.

Consider “QVQLVESGGGLGQAGGSLRLSSAASGFTFRRNAMGWYRQAPGKERELVAAINVRDGSTYYADSVKGRFTISRDNAKNTVYLQMNSLKPEDTAVYYCAAEFFQGYYWYYYWGQGTQVTVSS”, for which the “polyreactivity (PSR sort gate)” value was “high polyreactivity”.

Regarding “QVQLVESGGGLVQAGGSLRLSCAASGFTFNTNAMGWYRQAPGKERELVAAITSSGGSTYYADSVKGRFTISRDNAKNTVYLQMNSLKPEDTAVYYCNADVTLRLWAYYYYRYNYWGQGTQVTVSS”, the “polyreactivity (PSR sort gate)” value is on record as “low polyreactivity”.

On to “QVQLVESGGGLVQAGGSLRLSCAASGRTFTLNAMGWYRQAPGKERELVAAISGDTGSTYYADSVKGRFTISRDNAKNTVFLQMNSLKPEDTAVYYCATRHAGTWYYWFERYYWGQGTQVTVSS”, for which the “polyreactivity (PSR sort gate)” value was “high polyreactivity”.

Regarding “QVQLVESGGGLVQAGGSLRLSCAASGLTFYWNAMGWYRQAPGKERELVASISQSSGNTYYADSVKGRFTISRDNAKNTVYFQMNSLKPEDTAVYYCAARNRPSLNRYYYWGQGTQVNVSS”, the “polyreactivity (PSR sort gate)” value is listed as “low polyreactivity”.

As to “QVQLVESGGGLVQAGGSLRLSCAASGNIFLYYAMGWYRQAPGKERELVADIDSSGASTYYADSVKGRFTISRDNAKNTVYLEMNSLKPEDTAVYYCAAEFHWWYAGYDYGYWGQGTQVTVSS”, the “polyreactivity (PSR sort gate)” value is listed as “low polyreactivity”.

Take “QVQLVESGGGLVQAGGSLRLSCAASGSTFDYYTIGWYRQAPGKERELVAAISSSGGSTYYADSVKGRFTISRDNAKNTVYLQMNSLKPEDTAVYYCAADPSPYGDEYDYWGQGTQVTVSS”: the “polyreactivity (PSR sort gate)” value is “low polyreactivity”.

Consider “QVQLLESGGGLVQAGGSLRLTCAASGRTFQYNAMGWYRQAPGKERELVGAISSTGGSTYYADSVKGRFTISRDNAKNTVYLQMNSLKPEDTAVYYCARQGRYTRGDYWGQGTQVTVSS”, for which the “polyreactivity (PSR sort gate)” value was “high polyreactivity”.

As to “QVQLVESGGGLVQAGGSLRLSCAASGSIFYYGMGWYRQAPGKERELVAAITRGGSTYYADSVKGRFTISRDNAKNTVYLQMNSLKPEDTAVYYCATGPLVYYSARYSSYVYPYDYWGQGTQVTVSS”, the “polyreactivity (PSR sort gate)” value is on record as “low polyreactivity”.

In the case of “QVQLVESGGGLVQAGGSLRLSCAASGNTFLVNAKGWYRQAPGKERELVATIRRGGSTNYADSVKGRFTISRDNAKNTVYLLMNSLKPEDTAVYYCNADRVGYWSSNMDYWGQGTEVTVSS”, the “polyreactivity (PSR sort gate)” value is listed as “low polyreactivity”.

In the case of “QVQLVESGGGLVQAGGSLRLSCAASGSIFAYNAMGWYRQAPGKERELVAAISAGGRTKYADSVKGRFTISRDNAKNTVYLQMNCLKPEDTAVYYCAAESYTGKYSWVWKWYDYWGQGTQVTVSS”, the “polyreactivity (PSR sort gate)” value was “low polyreactivity”.

Take “QVQLQESGGGLVQAGGSLRLSCAASGNISSYYRMGWYRQAPGKEREFVATIAVGGTTNYADSVKGRFTISRDNAINTVFLQRNSLNTEDTAVCFCAANSTQYTWFDYWGQGTQVPVSS”: the “polyreactivity (PSR sort gate)” value is given as “low polyreactivity”.

For “QVQLVESGGGLVQAGGSLRLSCAASGRTFRWYAMGWYRQAPGKERELVADISSVGSTDYADSVKGRFTISRDNAKNTVYLQMNSLKPEDTAVYDCAADFSPRRYHNRSFGYWGHGTQVTVSS”, the “polyreactivity (PSR sort gate)” value is reported as “low polyreactivity”.

As to “QVQLVESGGGLVQAGGSLRLSCAASGRIFYLKAMGWYRQAPGTERELVAAINTSGDSTYYADSVKGRFTISRDNAKNTVDLQMNSLKPEDTAVSYCAAYVIGPDQFIYDYWGQGTQVTVSS”, the “polyreactivity (PSR sort gate)” value is on record as “low polyreactivity”.

On to “QVQLGESGGGLVQAGGSLRLSCAASGSIFSKYAKGSYRQAPGKERELVAAITMNGGSTYYADSVKGRFTISRDNAKNTVYFQMNSLKPEDTAVYYCSKSERPWWGYYYQFDYWGQGTQVTVSS”, for which the “polyreactivity (PSR sort gate)” value is “low polyreactivity”.

As for “QVQLVESGGGLVQAGGSLRLSCAASGLTFWKYTMGWYRQAPGKERELVAAISISGTNTYYADSVKGRFTISRDNAKNTVYLQMNSLKPEDTAVYYCAAVRGYPPTNYYYWGQGTQVTVSS”, the “polyreactivity (PSR sort gate)” value is given as “high polyreactivity”.

As for “QVQLVESGGGLVQAGGSLRLSCAASGFIFDSNVMGWYRQAPGKERELVATITNRGGRTYYADSVKGRFTISRDNAKNTVYLQMNSLKPEDTAVYYCNRRWIWTRDRGGYWGQGTQVTVSS”, the “polyreactivity (PSR sort gate)” value is on record as “low polyreactivity”.

Consider “QVQLVESGGGLVQAGGSLRLSCAASGYIFVNAMGWYRQAPGKERELVAAISSGRSTHYADSVKGRFTISLDNAKNTVYLQLNSLKPEDTAVYYCNADLYSWYWAGYNYWGQGTQVTVSS”, for which the “polyreactivity (PSR sort gate)” value is recorded as “high polyreactivity”.

Consider “QDQLVESGGGLVQAGGSLRLSSAASGRIFKWNAMGWYRPAPGTERQLVAAIRWSGTSTYADSVKGRFTISRDNAKNTVYLHMNSLKPEDTAVYYCAAQDVSAPGWWLHYWGQGTQVTVSS”, for which the “polyreactivity (PSR sort gate)” value is “low polyreactivity”.

Take “QVQLVESGGGLVQAGGSLRLSCAASGRTFANNAMGWYRQAPGKERELVAAISNGDSTYADSVKGRFTISRDNAKNTVYLQMNSLKPEDTAVYYWATRTKEDYTGDYWGQGTQVTVSS”: the “polyreactivity (PSR sort gate)” value was “low polyreactivity”.

In the case of “QVQLVESGGGVVQAGGSLRLSCAASGRTFWRYAMGWYRQAPGKERELVAAITSGGGSTYYADSVKGRFTISRDNAKNTVYLQMNSLKPEDTAVYYCNRAGRGSSFKGDYWGQGTQVTVSS”, the “polyreactivity (PSR sort gate)” value is “high polyreactivity”.

“QVQRVESGGGLVQAGGSLRLSCAASGITFWGYAMGWYRQAPGKDREFVARINWSGGRTYYAESVKGRFRISRDNAKNTVYLQMNSLKPEDTAVYYCNVVLRSVVSGDYWGQGTQVTVSS”: the “polyreactivity (PSR sort gate)” value is on record as “high polyreactivity”.

On to “QVQLVESGGGLVQAGGSLRLSCPASGRTSVINAMGWYRQAPGKETELVATITWSAASTYYADSVKGRFTISRDNAKNTVYLQMNSLKPEDTAVYYCATDSAQYGYDYWGQGTQVTVSS”, for which the “polyreactivity (PSR sort gate)” value is “low polyreactivity”.
